In the supplement of paper PMC10126150:
± gives the standard deviation of the averaged measurements.

test system: ATP; assay: switch fluorescence ratio, 500 uM ATP over buffer (Cy3 cluster intensity, sum of 5 cycles each) (fold (ratio)); higher = stronger signal-on switching upon ATP binding; sequences stand for … in TCGTCGGCAGCGTCAGATGTGTATAAGAGACAGTTTTTTTTTTTTTTTTTTTTTTTTT…TC; conditions: aptamer strand: ATP DNA aptamer (quencher-CACCTGGGGGAGTATTGCGGAGGAAGG + anchor), 100 nM annealed; ATP concentration: 500 uM
Method in brief: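 Clusters with intensities outside 100-1000 RFU were excluded. The remaining Cy3-labelled switching-strand clusters on a modified Illumina MiSeq flow-cell had been annealed to 100 nM quencher-labelled ATP aptamer and imaged in selection buffer, then after 15 min with 500 uM ATP at 22 °C, for five cycles separated by NaOH stripping and re-annealing. The fluorescence ratio, averaged per switch-domain sequence, is each cluster's summed target-cycle Cy3 intensity over its summed buffer-cycle Cy3 intensity.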
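Note: ATP exposure 15 min at 22 °C before imaging.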

In order of falling switch fluorescence ratio:
1. CGCATATGGC  2.459 ± 0.016
2. TCCTGGGTGT  2.23 ± 0.12
3. ACGAGGGAAA  2.12 ± 1.6
4. AATATAACCT  1.94 ± 0.092
5. CGACTCATAT  1.52 ± 0.11
6. GAAGCACGCC  1.45 ± 0.0069
7. TTTCTCGGCA  1.44 ± 0.42
8. TTCCTAGTCT  1.27 ± 0.19
9. TTGGAGAAA  1.27 ± 0.36
10. AATCTTGATT  1.2 ± 0.24
11. TACGGATACA  1.18 ± 0.048
12. AGCCTCCGGT  1.13 ± 0.073
13. CAGCAAGGGA  1.12 ± 0.025
14. TTACGCCCTT  1.11 ± 0.08
15. TCCCCGGTCA  1.09 ± 0.15
16. AAAAAATACG  1.09 ± 0.091
17. AAGCTGGTG  1.09 ± 0.042
18. AGCGAAATCT  1.08 ± 0.03
19. TTAGGGGGCC  1.07 ± 0.035
20. CACGGTACGT  1.06 ± 0.022
21. GTAACTTTTT  1.056 ± 0.0034
22. GGGTACCTAC  1.06 ± 0.042
23. TGTTAGATTT  1.05 ± 0.19
24. GGCGCAACGG  1.05 ± 0.024
25. TGGAAGGGCT  1.052 ± 0.0058
26. TGGGACCGTC  1.052 ± 0.0042
27. CGGGTGACGG  1.05 ± 0.057
28. TATTTGGGTG  1.05 ± 0.023
29. ACGGGGGAAC  1.046 ± 0.0071
30. AGGGCAACCG  1.04 ± 0.028
31. TGGGACGTTA  1.04 ± 0.036
32. CGGCTGTTTT  1.037 ± 0.0082
33. TTTTTACAGA  1.04 ± 0.025
34. CAGCGGGTCT  1.04 ± 0.054
35. GACATTGTTG  1.04 ± 0.055
36. TTTTATAATG  1.038 ± 0.0011
37. ACAGGGGGCT  1.04 ± 0.051
38. ACGGGATG  1.039 ± 0.0044
39. TTGGTTGGTG  1.03 ± 0.11
40. TTTCGTTCAT  1.033 ± 0.0078
41. ATGGCTTGTC  1.03 ± 0.038
42. AGACGAGGAA  1.03 ± 0.058
43. AGAGGGCCGG  1.03 ± 0.072
44. CGGGTCTCGA  1.03 ± 0.04
45. AGGAGTATGA  1.03 ± 0.029
46. GGCTGCTTTC  1.03 ± 0.055
47. TGGTAGTGAC  1.03 ± 0.064
48. AAGCGAAAGA  1.03 ± 0.014
49. TATTTATACA  1.029 ± 0.0054
50. ATGTTGGGTG  1.02 ± 0.045
51. TACATTAATT  1.02 ± 0.047
52. CGGCTAGGGG  1.02 ± 0.037
53. AAGGGATACG  1.02 ± 0.015
54. GGGTTTTCCG  1.02 ± 0.035
55. AAAGTCATGT  1.02 ± 0.05
56. CGGGGGAGCC  1.02 ± 0.025
57. TTTCTTTCTC  1.02 ± 0.026
58. ATTCTGATTG  1.02 ± 0.033
59. TAATCAGTAG  1.02 ± 0.015
60. GATGTTGCGT  1.018 ± 0.004
61. TTGGATTTGG  1.02 ± 0.051
62. GTTGTTATAT  1.02 ± 0.037
63. TATTAATCTT  1.02 ± 0.014
64. TTGTTGTCTT  1.02 ± 0.043
65. AGGCACGTGT  1.02 ± 0.015
66. TTTCTATTTT  1.02 ± 0.066
67. TGGGGGGAAC  1.02 ± 0.019
68. GCGGAGTATT  1.02 ± 0.012
69. CTCAAAAACA  1.02 ± 0.028
70. CCTATTGGGG  1.02 ± 0.037
71. ACACGTGGGA  1.015 ± 0.0032
72. TTCGGGTTGG  1.02 ± 0.015
73. ATTTTGAACA  1.019 ± 0.0062
74. GATATTAAAG  1.02 ± 0.014
75. TGGGGTACGT  1.02 ± 0.013
76. GGTTCAGATG  1.0081 ± 0.00081
77. TGGTGGCGGT  1.01 ± 0.075
78. CAAAAGTTGA  1.01 ± 0.053
79. CTAAGGGGCT  1.01 ± 0.015
80. TTGGGGTAAT  1.01 ± 0.022
81. AGACGGAGGG  1.015 ± 0.0017
82. AGTAACTAGA  1.01 ± 0.046
83. CCAGATTACT  1.01 ± 0.015
84. TGAATAAGAG  1.01 ± 0.026
85. ATAGGTGGCG  1.01 ± 0.038
86. TAGGGGCAGC  1.01 ± 0.0054
87. ATGTTGTATT  1.01 ± 0.052
88. TTATGTCTTG  1.01 ± 0.019
89. GGTTTGGTG  1.006 ± 0.0058
90. AAGGAATAGT  1.01 ± 0.026
91. TTAAGGGGGA  1.01 ± 0.025
92. TTTTTCCTGT  1.01 ± 0.011
93. GTTGTAGTTA  1.01 ± 0.041
94. TATTTTGTTA  1.01 ± 0.047
95. GGGATAATTA  1.01 ± 0.029
96. TGTGATTTTC  1.01 ± 0.016
97. TTCGTTTCGG  1.01 ± 0.037
98. GCCTTACATT  1.01 ± 0.039
99. GACGGGGTGG  1.01 ± 0.059
100. ATCGCGGGGG  1.009 ± 0.0021
101. GGCATAAGTA  1.008 ± 0.0054
102. TCTAAAATTA  1.007 ± 0.0046
103. GGGGTAAGGA  1 ± 0.021
104. TTGGGGCCGG  1.003 ± 0.0095
105. TGTTTGTGAT  1.003 ± 0.0098
106. CGGGGGCATA  1 ± 0.029
107. AGGGATTCCG  1 ± 0.032
108. CGCTTTTGGA  1 ± 0.036
109. GGGGTCAGAC  1 ± 0.022
110. GTTTTGAGTT  1 ± 0.021
111. CGGTTTATTG  1 ± 0.036
112. TGTTGCTGGA  1 ± 0.03
113. TTTTTATTGC  1 ± 0.035
114. GGGGGATCTT  1 ± 0.03
115. TTGTGACATA  1 ± 0.023
116. TGAGGGGTTG  1 ± 0.036
117. TGGCGTCTGA  1 ± 0.013
118. GCCTCTTAAG  1 ± 0.032
119. GGGGATTTTT  1 ± 0.035
120. GGGGTTCCGT  1 ± 0.025
121. GAAGGCAGTG  1 ± 0.011
122. TTTACGGGGG  1 ± 0.043
123. CGTTGTATCT  1 ± 0.035
124. TGGCCCTTGG  1 ± 0.054
125. TTGGCAGATT  1.004 ± 0.0061
126. TTAGTTGA  0.999 ± 0.015
127. GCTGCTGGCC  0.999 ± 0.044
128. CAGGATGAAT  0.999 ± 0.033
129. TAAGTGGAAT  0.999 ± 0.022
130. GCGGTTTTGT  0.998 ± 0.029
131. GTATTGGATA  0.998 ± 0.042
132. TTTTGCTTTT  0.998 ± 0.027
133. AGAGAGACGG  0.997 ± 0.026
134. GGTGTGAGGT  0.9973 ± 0.0093
135. GTTTTGGTCC  0.997 ± 0.012
136. TTTCAATTTA  0.996 ± 0.011
137. AACATATCTT  0.996 ± 0.014
138. AGGGTTATGG  0.996 ± 0.016
139. GGGCGACGGG  0.996 ± 0.046
140. GGAATCTGAT  0.996 ± 0.12
141. TGAGTCCTCG  0.995 ± 0.064
142. AGATGGAATT  0.994 ± 0.048
143. TTTCACGAGC  0.993 ± 0.091
144. GATTCGATCT  0.993 ± 0.024
145. AGTGTTATTT  0.993 ± 0.011
146. AAAGGGCGGC  0.992 ± 0.018
147. TAACAGGCGG  0.991 ± 0.028
148. TGCTTGGGGC  0.99 ± 0.059
149. GGATAAGGAG  0.99 ± 0.051
150. AAACGGGGGG  0.99 ± 0.024
151. TAATGTGGTT  0.989 ± 0.033
152. ATTTTGGTTT  0.989 ± 0.025
153. CTTAAAAAGG  0.989 ± 0.0056
154. GGGGTGTGCG  0.9883 ± 0.0051
155. TTTTTTCGGC  0.988 ± 0.022
156. TTAGAGTAGT  0.988 ± 0.013
157. GTCCTTTCTG  0.988 ± 0.014
158. CTGTTGGGGT  0.988 ± 0.017
159. CTTTTTGGGA  0.987 ± 0.012
160. TTTAGCCGGG  0.985 ± 0.014
161. TGAATTATGT  0.985 ± 0.048
162. ATAAGGTTTT  0.985 ± 0.014
163. GTTAACTCGG  0.985 ± 0.047
164. GTTGAATTAA  0.985 ± 0.041
165. AGGAGACGAA  0.985 ± 0.031
166. GTTGATGTAG  0.984 ± 0.028
167. GAAGCCGGGG  0.9839 ± 0.0083
168. GGTGCGGGGT  0.983 ± 0.016
169. GTTGTAAGCA  0.982 ± 0.053
170. ATGGTATATA  0.982 ± 0.025
171. GTTTATGTGG  0.981 ± 0.025
172. AGCTGACAGT  0.981 ± 0.0044
173. GGGTCTTAAT  0.981 ± 0.031
174. TTTGGGATCG  0.98 ± 0.045
175. TTGGTGGGGC  0.98 ± 0.02
176. TTTTTGTATA  0.979 ± 0.027
177. TTATTCCTTT  0.978 ± 0.042
178. AGTGAGGTTG  0.977 ± 0.049
179. GAGGATTGTG  0.976 ± 0.012
180. TTATTAGACG  0.976 ± 0.059
181. TGAGGTCGCG  0.9759 ± 0.0035
182. GTATGGGTTT  0.975 ± 0.012
183. GGGTTGTCAA  0.975 ± 0.0099
184. GGGCTTATGG  0.975 ± 0.054
185. TTGGGAATTT  0.975 ± 0.019
186. ATTTAGACGT  0.974 ± 0.026
187. AACATATGTT  0.972 ± 0.025
188. GGGGTCATGC  0.97 ± 0.041
189. GTTGGAACAG  0.969 ± 0.043
190. AGGTGCTAAT  0.968 ± 0.011
191. GGTTGGTGTG  0.967 ± 0.023
192. TTCGTTTCGA  0.965 ± 0.042
193. CATAGAAAAT  0.965 ± 0.0069
194. CGCTGTACAG  0.96028 ± 0.00038
195. GATTGAAAGG  0.957 ± 0.0097
196. TTTAGGATCT  0.954 ± 0.017
197. ATGATGGGGC  0.9536 ± 0.0011
198. TTAAGCGAAG  0.953 ± 0.029
199. TTGTAGAGCT  0.949 ± 0.017
200. CGGGGCACGC  0.896 ± 0.05
